{"source": "patent US20070066802A1", "test_in_all_cases": "cell-based or functional assay", "key": {"[1]": {"target": "K^b-CD28[L→G]-ζ receptor (mouse) (UniProt P31041)"}, "[2]": {"target": "K^b-CD28-ζ receptor pulsed with ovalbumin 257-264 peptide (SIINFEKL) (mouse) (UniProt P31041)"}, "[3]": {"target": "K^b-CD28[L→G]-ζ receptor pulsed with ovalbumin 257-264 peptide (SIINFEKL) (mouse) (UniProt P31041)"}}, "data": [{"substance": "clone AF6-88.5 anti-mouse H-2K^b (antibody)", "values": [{"measurement": "IFN-γ release by RMTC", "setting": "[1]", "value": "> 3.5", "unit": "fold"}]}, {"substance": "OT-1 TCR (rearranged ovalbumin 257-264/H-2K^b restricted TCR)", "values": [{"measurement": "in vivo depletion of Vα2+ OT-1 cells from the LN, peptide-pulsed against unpulsed RMTC", "setting": "[2]", "value": 93, "unit": "%"}, {"measurement": "in vivo depletion of Vα2+ OT-1 cells from the spleen, peptide-pulsed against unpulsed RMTC", "setting": "[2]", "value": 96, "unit": "%"}, {"measurement": "in vivo depletion of Vα2+ OT-1 cells from the LN, peptide-pulsed against unpulsed RMTC", "setting": "[3]", "value": 98, "unit": "%"}, {"measurement": "in vivo depletion of Vα2+ OT-1 cells from the spleen, peptide-pulsed against unpulsed RMTC", "setting": "[3]", "value": 99, "unit": "%"}, {"measurement": "lysis of OT-1 target cells, peptide concentration for equivalent lysis against K^b-CD28-ζ RMTC (fold lower peptide concentration)", "setting": "[3]", "value": "5 to 20"}, {"measurement": "specific lysis of OT-1 T cells, RMTC dose for equivalent lysis against K^b-CD28-ζ RMTC (fold fewer RMTC)", "setting": "[3]", "value": "3 to 9"}]}]}
